Results reported in patent US6001988, “High affinity nucleic acid ligands to lectins” (NeXstar Pharmaceuticals, Inc.).

Columns and labels:
L-selectin (LS-Rg) [1] = target: T1, L-selectin (LS-Rg) (Homo sapiens, UniProt P14151 P14151:39-332); experiment: filter; room temp; 6.8 nM at 37 C; conditions: tags: human IgG2 Fc fusion (provided by A. Varki); label: 32P; hairpin
T1 chain: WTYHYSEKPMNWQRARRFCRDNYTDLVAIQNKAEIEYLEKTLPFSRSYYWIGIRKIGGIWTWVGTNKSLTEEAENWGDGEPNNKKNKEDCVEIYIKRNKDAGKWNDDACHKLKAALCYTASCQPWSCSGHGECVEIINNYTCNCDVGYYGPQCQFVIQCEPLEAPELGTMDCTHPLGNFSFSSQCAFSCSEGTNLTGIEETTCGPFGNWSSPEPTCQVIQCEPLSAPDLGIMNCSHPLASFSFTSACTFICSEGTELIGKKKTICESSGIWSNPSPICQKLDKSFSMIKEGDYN

L-selectin (LS-Rg) [2] = target: T1, L-selectin (LS-Rg); experiment: filter; room temp; 11.8 nM at 37 C; conditions: tags: human IgG2 Fc fusion (provided by A. Varki); label: 32P; hairpin
E-selectin (ES-Rg) = target: T2, E-selectin (ES-Rg) (Homo sapiens, UniProt P16581 P16581:22-556); experiment: filter; room temp, Ca/Mg buffer; conditions: tags: extracellular domain fused to human IgG1 Fc (provided by A. Varki); chain copies: 2 (dimeric Fc chimera, inferred)
T2 chain: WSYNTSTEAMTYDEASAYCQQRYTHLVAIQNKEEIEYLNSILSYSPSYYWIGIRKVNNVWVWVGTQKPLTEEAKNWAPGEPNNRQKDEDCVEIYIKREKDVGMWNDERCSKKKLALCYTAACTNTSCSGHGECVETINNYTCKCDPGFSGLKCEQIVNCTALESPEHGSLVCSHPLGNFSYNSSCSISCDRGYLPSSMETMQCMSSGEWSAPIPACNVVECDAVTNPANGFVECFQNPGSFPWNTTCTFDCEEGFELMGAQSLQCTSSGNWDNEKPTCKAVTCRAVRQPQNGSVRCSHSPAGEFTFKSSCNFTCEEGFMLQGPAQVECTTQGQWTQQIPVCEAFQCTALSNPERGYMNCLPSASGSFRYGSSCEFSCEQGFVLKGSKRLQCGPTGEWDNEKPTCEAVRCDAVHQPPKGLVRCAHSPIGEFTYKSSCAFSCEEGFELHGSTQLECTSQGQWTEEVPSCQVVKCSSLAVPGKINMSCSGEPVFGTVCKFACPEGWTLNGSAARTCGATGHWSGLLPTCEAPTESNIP
Experimental: (§1) RNA was reverse transcribed into cDNA by AMV reverse transcriptase at 48° C. for 60 min in 50 mM Tris-Cl pH (8.3), 60 mM NaCl, 6 mM Mg(OAc)_2, 10 mM DTT, 100 pmol DNA primer, 0.4 mM each of dNTPs, and 0.4 unit/µl AMV RT. […] C) Nitrocellulose Filter Partitioning As described in SELEX Patent Applications, the nitrocellulose filter partitioning method was used to determine the affinity of RNA ligands for WGA and for other proteins. Filter discs (nitrocellulose/cellulose acetate mixed matrix, 0.45 µm pore size, Millipore; or pure nitrocellulose, 0.45 µm pore size, Bio-Rad) were placed on a vacuum manifold and washed with 4 ml of HBSS buffer under vacuum. Reaction mixtures, containing ^32P labeled RNA pools and unlabeled WGA, were incubated in HBSS for 10 min at room temperature, filtered, and then immediately washed with 4 ml HBSS. The filters were air-dried and counted in a Beckman LS6500 liquid scintillation counter without fluor. WGA is a homodimer, molecular weight 43.2 kD, with 4 GlcNAc binding sites per dimer. For affinity calculations, we assume one RNA ligand binding site per monomer (two per dimer). The monomer concentration is defined as 2 times the dimer concentration. The equilibrium dissociation constant, K_d, for an RNA pool or specific ligand that binds monophasically is given by the equation $$K_d=[P_f][R_f]/[RP]$$
(§2) The affinity of representative cloned ligands for LS-Rg, ES-Rg, PS-Rg, CD22β-Rg and WGA was determined by nitrocellulose partitioning and the results shown in Table XIV. The ligands are highly specific for L-selectin.
(§3) *Kds were determined at room temperature.

P-selectin (PS-Rg) = target: T3, P-selectin (PS-Rg) (Homo sapiens, UniProt P16109 P16109:42-321); experiment: filter; room temp, Ca/Mg buffer; conditions: tags: lectin, EGF and first two CRD domains fused to human IgG1 Fc (provided by A. Varki); chain copies: 2 (dimeric Fc chimera, inferred)
T3 chain: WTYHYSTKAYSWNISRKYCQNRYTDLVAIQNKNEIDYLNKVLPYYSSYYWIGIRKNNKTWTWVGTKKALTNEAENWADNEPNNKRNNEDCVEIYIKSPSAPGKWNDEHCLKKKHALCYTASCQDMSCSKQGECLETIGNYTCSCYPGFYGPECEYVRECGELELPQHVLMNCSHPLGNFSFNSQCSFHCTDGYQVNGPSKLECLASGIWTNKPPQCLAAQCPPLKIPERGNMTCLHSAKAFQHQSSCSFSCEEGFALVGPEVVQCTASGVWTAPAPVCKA
Experimental: as §1, §2, §3

L-selectin (LS-Rg) [3] = target: T1, L-selectin (LS-Rg); experiment: filter; room temp; 9.6 nM at 37 C; conditions: tags: human IgG2 Fc fusion (provided by A. Varki); label: 32P
L-selectin (LS-Rg) [4] = target: T1, L-selectin (LS-Rg); experiment: filter; room temp; 1.8 nM at 37 C; conditions: tags: human IgG2 Fc fusion (provided by A. Varki), label: 32P
L-selectin (LS-Rg) [5] = target: T1, L-selectin (LS-Rg); experiment: filter; apparently 37 C column; synthetic full-length 201 control 3.8 nM; conditions: tags: human IgG2 Fc fusion (provided by A. Varki); label: 32P; hairpin
L-selectin (LS-Rg) [6] = target: T1, L-selectin (LS-Rg); experiment: filter; room temp; 0.65 nM at 37 C; conditions: tags: human IgG2 Fc fusion (provided by A. Varki); label: 32P; hairpin
L-selectin (LS-Rg) [7] = target: T1, L-selectin (LS-Rg); experiment: filter; room temp; 590 pM at 37 C; conditions: tags: human IgG2 Fc fusion (provided by A. Varki); label: 32P; hairpin
L-selectin (LS-Rg) [8] = target: T1, L-selectin (LS-Rg); experiment: filter; room temp; 6.0 nM at 37 C; conditions: tags: human IgG2 Fc fusion (provided by A. Varki); label: 32P
[9] = target: T4, Ulex europaeus lectin UEA-II (Ulex europaeus, UniProt P22973 P22973:1-249); experiment: filter; HBSS, room temp; conditions: tags: E Y Laboratories; label: 32P
T4 sequence: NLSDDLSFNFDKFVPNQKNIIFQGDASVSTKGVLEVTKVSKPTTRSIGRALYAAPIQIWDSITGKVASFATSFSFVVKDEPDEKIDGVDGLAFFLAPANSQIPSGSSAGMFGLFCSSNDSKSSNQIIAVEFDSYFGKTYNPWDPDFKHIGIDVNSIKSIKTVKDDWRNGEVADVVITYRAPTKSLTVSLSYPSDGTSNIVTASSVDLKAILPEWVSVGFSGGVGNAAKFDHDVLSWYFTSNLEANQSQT
Experimental: as §1, with “The specifically eluted fraction was processed for use in the following round. Fractions eluted from immobilized WGA were heated at 90° C. for 5 minutes in 1% SDS, 2% β-mercaptoethanol and extracted with phenol/chloroform. RNA was” for “RNA was”, “per dimer). […]” for “per dimer). The monomer concentration is defined as 2 times the dimer concentration. The equilibrium dissociation constant, K_d, for an RNA pool or specific ligand that binds monophasically is given by the equation $$K_d=[P_f][R_f]/[RP]$$”

[10] = target: T5, wheat germ agglutinin (WGA) (Triticum vulgare, UniProt P10968 P10968:27-197); experiment: filter; HBSS, room temp; printed as 11.2, SEQ 40; conditions: tags: free lectin, E Y Laboratories; label: 32P
T5 sequence: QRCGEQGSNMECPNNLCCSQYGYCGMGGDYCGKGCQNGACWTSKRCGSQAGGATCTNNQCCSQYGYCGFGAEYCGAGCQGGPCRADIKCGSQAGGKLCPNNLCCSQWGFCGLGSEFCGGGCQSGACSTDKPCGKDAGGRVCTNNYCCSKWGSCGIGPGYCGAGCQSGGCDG
Experimental: The specifically eluted fraction was processed for use in the following round. Fractions eluted from immobilized WGA were heated at 90° C. for 5 minutes in 1% SDS, 2% β-mercaptoethanol and extracted with phenol/chloroform. RNA was reverse transcribed into cDNA by AMV reverse transcriptase at 48° C. for 60 min in 50 mM Tris-Cl pH (8.3), 60 mM NaCl, 6 mM Mg(OAc)_2, 10 mM DTT, 100 pmol DNA primer, 0.4 mM each of dNTPs, and 0.4 unit/µl AMV RT. […] C) Nitrocellulose Filter Partitioning As described in SELEX Patent Applications, the nitrocellulose filter partitioning method was used to determine the affinity of RNA ligands for WGA and for other proteins. Filter discs (nitrocellulose/cellulose acetate mixed matrix, 0.45 µm pore size, Millipore; or pure nitrocellulose, 0.45 µm pore size, Bio-Rad) were placed on a vacuum manifold and washed with 4 ml of HBSS buffer under vacuum. Reaction mixtures, containing ^32P labeled RNA pools and unlabeled WGA, were incubated in HBSS for 10 min at room temperature, filtered, and then immediately washed with 4 ml HBSS. The filters were air-dried and counted in a Beckman LS6500 liquid scintillation counter without fluor. […]
The dissociation constants for representative members of families 1–9 and orphan ligands were determined by nitrocellulose filter binding experiments and are listed in Table III. […]

L-selectin (LS-Rg) [11] = target: T1, L-selectin (LS-Rg); experiment: filter; room temp; 23.2 nM at 37 C; conditions: tags: human IgG2 Fc fusion (provided by A. Varki); label: 32P; hairpin
L-selectin (LS-Rg) [12] = target: T1, L-selectin (LS-Rg); experiment: filter; room temp; 8.8 nM at 37 C; conditions: tags: human IgG2 Fc fusion (provided by A. Varki); label: 32P; hairpin
L-selectin (LS-Rg) [13] = target: T1, L-selectin (LS-Rg); experiment: filter; room temp; 8.4 nM at 37 C; conditions: tags: human IgG2 Fc fusion (provided by A. Varki); label: 32P

B1: 139 (ssDNA)
DNA: CTACCTACGATCTGACTAGCGGACAAGGCACTCGACGTAGTTTATAACTCCCTCCGGGCCGCTTACTCTCATGTAGTTCC
Kd (L-selectin (LS-Rg) [1]): 0.21 nM

B2: 111 (ssDNA)
DNA: CTACCTACGATCTGACTAGCTACACAAGGTGCTAAACGTAGAGCCAGATCGGATCTGAGCGCTTACTCTCATGTAGTTCC
Kd (L-selectin (LS-Rg) [2]): 0.33 nM
Kd (E-selectin (ES-Rg)): 1200 nM
Kd (P-selectin (PS-Rg)): 840 nM

B3: 109 (ssDNA)
DNA: CTACCTACGATCTGACTAGCCCACCGTGATGCACGATACATGAGGGTGTGTCAGCGCATGCTTACTCTCATGTAGTTCC
Kd (L-selectin (LS-Rg) [3]): 0.19 nM

B4: 181 (ssDNA)
DNA: CTACCTACGATCTGACTAGCCATCAAGGACTTTGCCCGAAACCCTAGGTTCACGTGTGGGGCTTACTCTCATGTAGTTCC
Kd (L-selectin (LS-Rg) [4]): 0.084 nM
Kd (E-selectin (ES-Rg)): 37 nM
Kd (P-selectin (PS-Rg)): 1600 nM

B5: 128 (ssDNA)
DNA: CTACCTACGATCTGACTAGCAGGACCAAGGTGTTAAACGGCTCCCCTGGCTATGCCTCTTGCTTACTCTCATGTAGTTCC
Kd (L-selectin (LS-Rg) [4]; hairpin): 0.31 nM

GTAACCAGTACAAGGTGCTAAACGTAATGGCTTCGGCTTAC (ssDNA) [201T3 (41-mer)]
Kd (L-selectin (LS-Rg) [5]): 43 nM

B6: 137 (ssDNA)
DNA: CTACCTACGATCTGACTAGCTACCCCTTGGGCCTCATAGACAAGGTCTTAAACGTTAGCGCTTACTCTCATGTAGTTCC
Kd (L-selectin (LS-Rg) [6]): 0.52 nM

B7: 179 (ssDNA)
DNA: CTACCTACGATCTGACTAGCCACATGCCTGACGCGGTACAAGGCCTGGACGTAACGTTGGCTTACTCTCATGTAGTTCC
Kd (L-selectin (LS-Rg) [7]): 0.18 nM

TAGCCAAGGTAACCAGTACAAGGTGCTAAACGTAATGGCTTCGGCTTAC (ssDNA) [201T1 (49-mer)]
Kd (L-selectin (LS-Rg) [5]): 4.8 nM

B8: 206 (ssDNA)
DNA: CTACCTACGATCTGACTAGCAGCGTTGTACGGGGTTACACACAACGATTTAGATGCTCTGCTTACTCTCATGTAGTTCC
Kd (L-selectin (LS-Rg) [8]): 0.33 nM
Kd (E-selectin (ES-Rg)): 100 nM
Kd (P-selectin (PS-Rg)): 600 nM

B9: 11.20 (ssRNA)
RNA: GGGAAAAGCGAAUCAUACACAAGAUUGGUCGUACUGGACAGAGCCGUGGUAGAGGGAUUGGGACAAAGUGUCAGCUCCGCCAGAGACCAACCGAGAA
modifications: 2'-NH2 all C and U
Kd [9]: 2200 nM
Kd [10]: 1.4 nM

B10: 112 (ssDNA)
DNA: CTACCTACGATCTGACTAGCCGCATCCACATAGTTCAAGGGGCTACACGAAATATTGCAGCTTACTCTCATGTAGTTCC
Kd (L-selectin (LS-Rg) [11]): 0.3 nM

B11: 145 (ssDNA)
DNA: CTACCTACGATCTGACTAGCCCCCGAAGAACATTTTACAAGGTGCTAAACGTAAAATCAGGCTTACTCTCATGTAGTTCC
Kd (L-selectin (LS-Rg) [12]): 0.92 nM

B12: 214 (ssDNA)
DNA: CTACCTACGATCTGACTAGCTGATGCGACTTTAGTCGAACGTTACTGGGGCTCAGAGGACAGCTTACTCTCATGTAGTTCC
Kd (L-selectin (LS-Rg) [13]): 0.66 nM
